The labels stand for the following.
T1: CRF2R
T1 sequence (Q13324 whole entry, species assumed, looked up): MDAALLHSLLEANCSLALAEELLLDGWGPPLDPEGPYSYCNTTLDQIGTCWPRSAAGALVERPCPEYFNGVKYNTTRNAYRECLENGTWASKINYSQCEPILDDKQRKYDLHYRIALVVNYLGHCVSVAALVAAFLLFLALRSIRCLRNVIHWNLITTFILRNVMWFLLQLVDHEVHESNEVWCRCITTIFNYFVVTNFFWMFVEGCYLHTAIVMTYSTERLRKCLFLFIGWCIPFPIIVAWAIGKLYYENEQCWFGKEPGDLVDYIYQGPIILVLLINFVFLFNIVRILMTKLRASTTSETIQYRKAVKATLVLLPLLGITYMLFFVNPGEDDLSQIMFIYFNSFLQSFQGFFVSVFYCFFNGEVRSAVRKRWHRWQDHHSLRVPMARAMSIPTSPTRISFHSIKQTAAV

Ends that are not written are not given here.

The first experiment addresses CRF1R. In words: cell-based or functional assay.
With ZGPPISIDLSIGLLRKMIEIEKQEKEKQQAANNRLLLDTI (C-terminal amide) [SEQ ID NO 25], the “CRF1R EC50” value was 677 nM and the “CRF1R Emax” value is 92.3%.
The matching figures for ZGPPISIDLPINLLRKMIEIEKQEKEKQQAANNRLLLDTI (C-terminal amide) [SEQ ID NO 37]: over 1000 nM and 5%.
The matching figures for ZGPPISIDLPYYLLRKMIEIEKQEKEKQQAANNRLLLDTI (C-terminal amide) [SEQ ID NO 40]: 102 nM and 99%.
Take ZGPPISIDLPIRLLRKMIEIEKQEKEKQQAANNRLLLDTI (C-terminal amide) [SEQ ID NO 38]: the “CRF1R EC50” value was over 1000 nM and the “CRF1R Emax” value was 11%.
ZGPPISIDLPIVLLRKMIEIEKQEKEKQQAANNRLLLDTI (C-terminal amide) [SEQ ID NO 31]: the “CRF1R EC50” value is over 1000 nM and the “CRF1R Emax” value was 18%.
For ZGPPISIDLPIDLLRKMIEIEKQEKEKQQAANNRLLLDTI (C-terminal amide) [SEQ ID NO 28], in that order: over 1000 nM and 2%.
The matching figures for ZGPPISIDLPVYLLRKMIEIEKQEKEKQQAANNRLLLDTI (C-terminal amide) [SEQ ID NO 39]: 1000 nM and 63%.
For ZGPPISIDLPTFLLRKMIEIEKQEKEKQQAANNRLLLDTI (C-terminal amide) [SEQ ID NO 44], in that order: 944 nM and 64%.
Consider ZGPPISIDLPTWLLRKMIEIEKQEKEKQQAANNRLLLDTI (C-terminal amide) [SEQ ID NO 41], for which the “CRF1R EC50” value was over 1000 nM and the “CRF1R Emax” value worked out at 43%.
For ZGPPISIDLPEYLLRKMIEIEKQEKEKQQAANNRLLLDTI (C-terminal amide) [SEQ ID NO 48], in that order: 1000 nM and 21%.
For ZGPPISIDLPIALLRKMIEIEKQEKEKQQAANNRLLLDTI (C-terminal amide) [SEQ ID NO 47], in that order: 1000 nM and 12%.
Consider ZGPPISIDLSLELLRKMIEIEKQEKEKQQAANNALLLATI (C-terminal amide) [SEQ ID NO 30], for which the “CRF1R EC50” value came to 100 nM and the “CRF1R Emax” value was 100%.
For ZGPPISIDLPTVLLRKMIEIEKQEKEKQQAANNRLLLDTI (C-terminal amide) [SEQ ID NO 46], in that order: over 1000 nM and 17%.
The matching figures for ZGPPISIDLPIILLRKMIEIEKQEKEKQQAANNRLLLDTI (C-terminal amide) [SEQ ID NO 36]: over 1000 nM and 33%.
For ZGPPISIDLPAYLLRKMIEIEKQEKEKQQAANNRLLLDTI (C-terminal amide) [SEQ ID NO 32], in that order: 606 nM and 94%.
ZGPPISIDLPIFLLRKMIEIEKQEKEKQQAANNRLLLDTI (C-terminal amide) [SEQ ID NO 29]: the “CRF1R EC50” value was over 1000 nM and the “CRF1R Emax” value came to 79%.
Regarding ZGPPISIDLPTILLRKMIEIEKQEKEKQQAANNRLLLDTI (C-terminal amide) [SEQ ID NO 50], the “CRF1R EC50” value was over 1000 nM and the “CRF1R Emax” value came out at 42%.
The matching figures for ZGPPISIDLPIKLLRKMIEIEKQEKEKQQAANNRLLLDTI (C-terminal amide) [SEQ ID NO 34]: over 1000 nM and 11%.
The matching figures for ZGPPISIDLPTTLLRKMIEIEKQEKEKQQAANNRLLLDTI (C-terminal amide) [SEQ ID NO 42]: over 1000 nM and 10%.
For ZGPPISIDLPILLLRKMIEIEKQEKEKQQAANNRLLLDTI (C-terminal amide) [SEQ ID NO 35], in that order: over 1000 nM and 74%.
On to ZGPPISIDLPIPLLRKMIEIEKQEKEKQQAANNRLLLDTI (C-terminal amide) [SEQ ID NO 26], for which the “CRF1R EC50” value was over 1000 nM and the “CRF1R Emax” value is 16%.
The matching figures for ZGPPISIDLPQYLLRKMIEIEKQEKEKQQAANNRLLLDTI (C-terminal amide) [SEQ ID NO 27]: 325 nM and 100%.
The matching figures for ZGPPISIDLPTDLLRKMIEIEKQEKEKQQAANNRLLLDTI (C-terminal amide) [SEQ ID NO 49]: over 1000 nM and 15%.
The matching figures for ZGPPISIDLPTKLLRKMIEIEKQEKEKQQAANNRLLLDTI (C-terminal amide) [SEQ ID NO 45]: over 1000 nM and 7%.
For the molecule ZGPPISIDLPTPLLRKMIEIEKQEKEKQQAANNRLLLDTI (C-terminal amide) [SEQ ID NO 52], the “CRF1R EC50” value was over 1000 nM and the “CRF1R Emax” value turned out to be 13%.
The matching figures for ZGPPISIDLPTLLLRKMIEIEKQEKEKQQAANNRLLLDTI (C-terminal amide) [SEQ ID NO 51]: over 1000 nM and 48%.
On to ZGPPISIDLPISLLRKMIEIEKQEKEKQQAANNRLLLDTI (C-terminal amide) [SEQ ID NO 53], for which the “CRF1R EC50” value was over 1000 nM and the “CRF1R Emax” value was 19%.
The matching figures for ZGPPISIDLPTSLLRKMIEIEKQEKEKQQAANNRLLLDTI (C-terminal amide) [SEQ ID NO 43]: over 1000 nM and 10%.

Another experiment deals with T1, CRF2R. In words: cell-based or functional assay.
As to IVLSLDVPIGLLQILLEQEKARAAREQATTNARILARV-NH2 [SEQ ID NO 121], the “CRF2R EC50” value was 5.67 nM.
As to Ac-IVLSLDVPIGLLQILLEQEKARAAREQATTNARILARV-NH2 [SEQ ID NO 3], the “CRF2R EC50” value came to 12.1 nM.
Turning to SQEPPISLDLPLELLREVLEMTKADQLAQQAHSNRKLLDIA-NH2 [SEQ ID NO 89], the “CRF2R EC50” value was 100 nM and the “CRF2R Emax” value is 12.7%.
Turning to Ac-IVLSLDVPIGLLQILLEQEKARAAREQATTNARILARV-NH2 (not fully specified) [SEQ ID NO 107], the “CRF2R EC50” value is 12.1 nM.
As for ZGPPISIDLSIGLLRKMIEIEKQEKEKQQAANNRLLLDTI (C-terminal amide) [SEQ ID NO 25], the “CRF2R EC50” value came to 81 nM and the “CRF2R Emax” value came to 81.9%.
For ZGPPISIDLPINLLRKMIEIEKQEKEKQQAANNRLLLDTI (C-terminal amide) [SEQ ID NO 37], in that order: over 100 nM and 51%.
Consider ZGPPISIDLPYYLLRKMIEIEKQEKEKQQAANNRLLLDTI (C-terminal amide) [SEQ ID NO 40], for which the “CRF2R EC50” value was determined as 6.95 nM and the “CRF2R Emax” value was found to be 93%.
The matching figures for ZGPPISIDLPQQLLRKMIEIEKQEKEKQQAANNRLLLDTI (C-terminal amide) [SEQ ID NO 198]: 29.9 nM and 100%.
For ZGPPISIDLPIRLLRKMIEIEKQEKEKQQAANNRLLLDTI (C-terminal amide) [SEQ ID NO 38], in that order: 71.9 nM and 91%.
For ZGPPISIDLPIVLLRKMIEIEKQEKEKQQAANNRLLLDTI (C-terminal amide) [SEQ ID NO 31], in that order: 30.8 nM and 100%.
ZGPPISIDLPIDLLRKMIEIEKQEKEKQQAANNRLLLDTI (C-terminal amide) [SEQ ID NO 28]: the “CRF2R EC50” value worked out at 100 nM and the “CRF2R Emax” value amounted to 15%.
The matching figures for ZGPPISIDLPVYLLRKMIEIEKQEKEKQQAANNRLLLDTI (C-terminal amide) [SEQ ID NO 39]: 58.2 nM and 94%.
In the case of ZGPPISIDLPTFLLRKMIEIEKQEKEKQQAANNRLLLDTI (C-terminal amide) [SEQ ID NO 44], the “CRF2R EC50” value was 19.1 nM and the “CRF2R Emax” value came out at 87%.
For ZGPPISIDLPTWLLRKMIEIEKQEKEKQQAANNRLLLDTI (C-terminal amide) [SEQ ID NO 41], in that order: 18.3 nM and 100%.
For ZGPPISIDLPQVLLRKMIEIEKQEKEKQQAANNRLLLDTI (C-terminal amide) [SEQ ID NO 197], in that order: 48.1 nM and 94%.
For ZGPPISIDLPEYLLRKMIEIEKQEKEKQQAANNRLLLDTI (C-terminal amide) [SEQ ID NO 48], in that order: 100 nM and 14%.
In the case of ZGPPISIDLPIALLRKMIEIEKQEKEKQQAANNRLLLDTI (C-terminal amide) [SEQ ID NO 47], the “CRF2R EC50” value is over 100 nM and the “CRF2R Emax” value stood at 66%.
For ZGPPISIDLSLELLRKMIEIEKQEKEKQQAANNALLLATI (C-terminal amide) [SEQ ID NO 30], in that order: 18.7 nM and 85.5%.
Take ZGPPISIDLPTVLLRKMIEIEKQEKEKQQAANNRLLLDTI (C-terminal amide) [SEQ ID NO 46]: the “CRF2R EC50” value is over 100 nM and the “CRF2R Emax” value was 100%.
The matching figures for ZGPPISIDLPIILLRKMIEIEKQEKEKQQAANNRLLLDTI (C-terminal amide) [SEQ ID NO 36]: 14.8 nM and 73%.
For ZGPPISIDLPAYLLRKMIEIEKQEKEKQQAANNRLLLDTI (C-terminal amide) [SEQ ID NO 32], in that order: 20.2 nM and 98%.
For ZGPPISIDLPIFLLRKMIEIEKQEKEKQQAANNRLLLDTI (C-terminal amide) [SEQ ID NO 29], in that order: 16 nM and 100%.
Turning to ZGPPISIDLPTILLRKMIEIEKQEKEKQQAANNRLLLDTI (C-terminal amide) [SEQ ID NO 50], the “CRF2R EC50” value stood at 19 nM and the “CRF2R Emax” value came to 94%.
The matching figures for ZGPPISIDLPIKLLRKMIEIEKQEKEKQQAANNRLLLDTI (C-terminal amide) [SEQ ID NO 34]: over 100 nM and 45%.
The matching figures for ZGPPISIDLPTTLLRKMIEIEKQEKEKQQAANNRLLLDTI (C-terminal amide) [SEQ ID NO 42]: over 100 nM and 88%.
Regarding ZGPPISIDLPILLLRKMIEIEKQEKEKQQAANNRLLLDTI (C-terminal amide) [SEQ ID NO 35], the “CRF2R EC50” value is 15.6 nM and the “CRF2R Emax” value was determined as 88%.
The matching figures for ZGPPISIDLPIPLLRKMIEIEKQEKEKQQAANNRLLLDTI (C-terminal amide) [SEQ ID NO 26]: 91.8 nM and 86%.
For ZGPPISIDLPQYLLRKMIEIEKQEKEKQQAANNRLLLDTI (C-terminal amide) [SEQ ID NO 27], in that order: 10.7 nM and 96%.
ZGPPISIDLPTDLLRKMIEIEKQEKEKQQAANNRLLLDTI (C-terminal amide) [SEQ ID NO 49]: the “CRF2R EC50” value was over 100 nM and the “CRF2R Emax” value came to 37%.
Turning to ZGPPISIDLPTKLLRKMIEIEKQEKEKQQAANNRLLLDTI (C-terminal amide) [SEQ ID NO 45], the “CRF2R EC50” value is over 100 nM and the “CRF2R Emax” value stood at 44%.
The matching figures for ZGPPISIDLPTPLLRKMIEIEKQEKEKQQAANNRLLLDTI (C-terminal amide) [SEQ ID NO 52]: over 100 nM and 10%.
As to ZGPPISIDLPTLLLRKMIEIEKQEKEKQQAANNRLLLDTI (C-terminal amide) [SEQ ID NO 51], the “CRF2R EC50” value came to 20.6 nM and the “CRF2R Emax” value stood at 100%.
The matching figures for ZGPPISIDLPISLLRKMIEIEKQEKEKQQAANNRLLLDTI (C-terminal amide) [SEQ ID NO 53]: over 100 nM and 95%.
For ZGPPISIDLPTSLLRKMIEIEKQEKEKQQAANNRLLLDTI (C-terminal amide) [SEQ ID NO 43], in that order: over 100 nM and 67%.

(Values after patent US20030148956A1 (PROCTER AND GAMBLE, published 2003).)
